The supplement of paper PMC7125110
± gives the standard error. Fewer inactive variants are shown than the library holds.

B1: glmS ribozyme (parent)
chain: AUAAAAGCGCCAGAACUACAGAAAUGUAGUUGACGAGGAGGAGGUUUAUCGAAUUUUCGGCGGAUGCCUCCAAA

How the values were obtained:
Conditions in all cases: with glucosamine-6-phosphate
[1] = variants of: B1; assay: self-cleavage kobs at 40 uM GlcN6P; higher = faster cleavage; RNA array
Method in brief: (§1)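 Tracking of barcoded ribozyme variants used a hybridised Cy3 probe at 37 °C, after in situ transcription by E. coli RNA polymerase on sequenced MiSeq chips. The flowed solution held 40 μM to 10 mM glucosamine-6-phosphate in HEPES/KCl/Mg(OAc)2 buffer, and imaging ran over ~14 h. kobs was taken from exponential decay fits of normalised per-tile medians, and kcat and KM from weighted Michaelis–Menten fits.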

[2] = variants of: B1; assay: self-cleavage kobs at 160 uM GlcN6P; higher = faster cleavage; RNA array
Method in brief: as §1

[3] = variants of: B1; assay: self-cleavage kobs at 2500 uM GlcN6P; higher = faster cleavage; RNA array
Method in brief: as §1

[4] = variants of: B1; assay: self-cleavage kobs at 10000 uM GlcN6P; higher = faster cleavage; RNA array
Method in brief: as §1

[5] = variants of: B1; assay: self-cleavage kobs at 640 uM GlcN6P; higher = faster cleavage; RNA array
Method in brief: as §1

C10U C58G
self-cleavage kobs at 40 uM GlcN6P [1]: < 1e-05 s⁻¹
self-cleavage kobs at 160 uM GlcN6P [2]: < 1e-05 s⁻¹
self-cleavage kobs at 2500 uM GlcN6P [3]: < 1e-05 s⁻¹
self-cleavage kobs at 10000 uM GlcN6P [4]: < 1e-05 s⁻¹

G13C U30G U54G G63U C67U
self-cleavage kobs at 40 uM GlcN6P [1]: < 1e-05 s⁻¹
self-cleavage kobs at 10000 uM GlcN6P [4]: < 1e-05 s⁻¹

A6U C10A G40A U46G
self-cleavage kobs at 40 uM GlcN6P [1]: < 1e-05 s⁻¹
self-cleavage kobs at 10000 uM GlcN6P [4]: < 1e-05 s⁻¹

G29U G40C A52G
self-cleavage kobs at 40 uM GlcN6P [1]: < 1e-05 s⁻¹

G35A C61G U65G C67A U69G
self-cleavage kobs at 40 uM GlcN6P [1]: 6.66e-05 ± 2.3e-05 s⁻¹

G9C C10U G44A U54A C71G
self-cleavage kobs at 40 uM GlcN6P [1]: < 1e-05 s⁻¹

C34G A48G C68G
self-cleavage kobs at 40 uM GlcN6P [1]: 8.52e-05 ± 3.4e-05 s⁻¹

U31G A64U
self-cleavage kobs at 40 uM GlcN6P [1]: < 1e-05 s⁻¹
self-cleavage kobs at 160 uM GlcN6P [2]: < 1e-05 s⁻¹
self-cleavage kobs at 640 uM GlcN6P [5]: < 1e-05 s⁻¹
self-cleavage kobs at 2500 uM GlcN6P [3]: < 1e-05 s⁻¹

G35U C50U C67G
self-cleavage kobs at 40 uM GlcN6P [1]: 0.000272 ± 0.0001 s⁻¹

A33C G44C U57A A64U
self-cleavage kobs at 40 uM GlcN6P [1]: < 1e-05 s⁻¹
self-cleavage kobs at 160 uM GlcN6P [2]: < 1e-05 s⁻¹
self-cleavage kobs at 640 uM GlcN6P [5]: < 1e-05 s⁻¹
self-cleavage kobs at 2500 uM GlcN6P [3]: < 1e-05 s⁻¹
self-cleavage kobs at 10000 uM GlcN6P [4]: < 1e-05 s⁻¹

A33U U56A U65A
self-cleavage kobs at 40 uM GlcN6P [1]: < 1e-05 s⁻¹

C8A G66U
self-cleavage kobs at 40 uM GlcN6P [1]: < 1e-05 s⁻¹
self-cleavage kobs at 160 uM GlcN6P [2]: < 1e-05 s⁻¹
self-cleavage kobs at 2500 uM GlcN6P [3]: < 1e-05 s⁻¹

G41A C68G
self-cleavage kobs at 40 uM GlcN6P [1]: < 1e-05 s⁻¹
self-cleavage kobs at 160 uM GlcN6P [2]: < 1e-05 s⁻¹
self-cleavage kobs at 640 uM GlcN6P [5]: < 1e-05 s⁻¹
self-cleavage kobs at 2500 uM GlcN6P [3]: < 1e-05 s⁻¹
self-cleavage kobs at 10000 uM GlcN6P [4]: < 1e-05 s⁻¹

C16U G40U C68G
self-cleavage kobs at 40 uM GlcN6P [1]: < 1e-05 s⁻¹
self-cleavage kobs at 160 uM GlcN6P [2]: < 1e-05 s⁻¹
self-cleavage kobs at 10000 uM GlcN6P [4]: < 1e-05 s⁻¹

A12C G13A U65C C68U
self-cleavage kobs at 40 uM GlcN6P [1]: < 1e-05 s⁻¹

G59C C68U
self-cleavage kobs at 40 uM GlcN6P [1]: < 1e-05 s⁻¹

G40C C68U
self-cleavage kobs at 40 uM GlcN6P [1]: < 1e-05 s⁻¹
self-cleavage kobs at 10000 uM GlcN6P [4]: 1.72e-05 ± 7.9e-06 s⁻¹

G35A U56C C58U
self-cleavage kobs at 40 uM GlcN6P [1]: < 1e-05 s⁻¹
self-cleavage kobs at 10000 uM GlcN6P [4]: < 1e-05 s⁻¹

A15C G29C U30C U31G G38C G60A U69G
self-cleavage kobs at 40 uM GlcN6P [1]: < 1e-05 s⁻¹

C8G G41A
self-cleavage kobs at 40 uM GlcN6P [1]: < 1e-05 s⁻¹
self-cleavage kobs at 160 uM GlcN6P [2]: < 1e-05 s⁻¹
self-cleavage kobs at 2500 uM GlcN6P [3]: < 1e-05 s⁻¹
self-cleavage kobs at 10000 uM GlcN6P [4]: < 1e-05 s⁻¹

C10U A14G A15G G43A U45G A52G A64G
self-cleavage kobs at 40 uM GlcN6P [1]: < 1e-05 s⁻¹
self-cleavage kobs at 160 uM GlcN6P [2]: < 1e-05 s⁻¹
self-cleavage kobs at 10000 uM GlcN6P [4]: < 1e-05 s⁻¹

G29C A48G
self-cleavage kobs at 40 uM GlcN6P [1]: < 1e-05 s⁻¹
self-cleavage kobs at 160 uM GlcN6P [2]: < 1e-05 s⁻¹
self-cleavage kobs at 640 uM GlcN6P [5]: < 1e-05 s⁻¹
self-cleavage kobs at 2500 uM GlcN6P [3]: < 1e-05 s⁻¹

A33G A64C
self-cleavage kobs at 40 uM GlcN6P [1]: < 1e-05 s⁻¹
self-cleavage kobs at 160 uM GlcN6P [2]: < 1e-05 s⁻¹
self-cleavage kobs at 640 uM GlcN6P [5]: < 1e-05 s⁻¹
self-cleavage kobs at 2500 uM GlcN6P [3]: < 1e-05 s⁻¹
self-cleavage kobs at 10000 uM GlcN6P [4]: < 1e-05 s⁻¹

A48C C58U
self-cleavage kobs at 40 uM GlcN6P [1]: < 1e-05 s⁻¹
self-cleavage kobs at 160 uM GlcN6P [2]: < 1e-05 s⁻¹
self-cleavage kobs at 640 uM GlcN6P [5]: < 1e-05 s⁻¹
self-cleavage kobs at 10000 uM GlcN6P [4]: < 1e-05 s⁻¹

A14U G41U C68A C70U
self-cleavage kobs at 40 uM GlcN6P [1]: < 1e-05 s⁻¹

U46G A53U U69C
self-cleavage kobs at 40 uM GlcN6P [1]: 7.38e-05 ± 2.7e-05 s⁻¹
self-cleavage kobs at 10000 uM GlcN6P [4]: 0.00109 ± 0.0003 s⁻¹

C11U A52C
self-cleavage kobs at 40 uM GlcN6P [1]: < 1e-05 s⁻¹
self-cleavage kobs at 640 uM GlcN6P [5]: < 1e-05 s⁻¹
self-cleavage kobs at 2500 uM GlcN6P [3]: < 1e-05 s⁻¹
self-cleavage kobs at 10000 uM GlcN6P [4]: < 1e-05 s⁻¹

A14G A53U C71G
self-cleavage kobs at 40 uM GlcN6P [1]: 0.000153 ± 2.4e-05 s⁻¹
self-cleavage kobs at 640 uM GlcN6P [5]: 0.000741 ± 0.00014 s⁻¹
self-cleavage kobs at 2500 uM GlcN6P [3]: 0.00038 ± 0.0001 s⁻¹

A33U G62C
self-cleavage kobs at 40 uM GlcN6P [1]: < 1e-05 s⁻¹
self-cleavage kobs at 640 uM GlcN6P [5]: < 1e-05 s⁻¹

A33G G44C
self-cleavage kobs at 40 uM GlcN6P [1]: < 1e-05 s⁻¹
self-cleavage kobs at 160 uM GlcN6P [2]: < 1e-05 s⁻¹
self-cleavage kobs at 640 uM GlcN6P [5]: < 1e-05 s⁻¹
self-cleavage kobs at 2500 uM GlcN6P [3]: < 1e-05 s⁻¹
self-cleavage kobs at 10000 uM GlcN6P [4]: < 1e-05 s⁻¹

C16U C71U
self-cleavage kobs at 40 uM GlcN6P [1]: 0.000761 ± 6.6e-05 s⁻¹
self-cleavage kobs at 160 uM GlcN6P [2]: 0.00136 ± 0.00015 s⁻¹
self-cleavage kobs at 640 uM GlcN6P [5]: 0.00431 ± 0.00077 s⁻¹
self-cleavage kobs at 2500 uM GlcN6P [3]: 0.0356 ± 0.017 s⁻¹
self-cleavage kobs at 10000 uM GlcN6P [4]: 0.0301 ± 0.0059 s⁻¹

G7C U47C
self-cleavage kobs at 40 uM GlcN6P [1]: < 1e-05 s⁻¹
self-cleavage kobs at 160 uM GlcN6P [2]: < 1e-05 s⁻¹
self-cleavage kobs at 640 uM GlcN6P [5]: < 1e-05 s⁻¹
self-cleavage kobs at 10000 uM GlcN6P [4]: < 1e-05 s⁻¹

A15U G51U C71A
self-cleavage kobs at 40 uM GlcN6P [1]: < 1e-05 s⁻¹
self-cleavage kobs at 10000 uM GlcN6P [4]: < 1e-05 s⁻¹

U46C G59C C68U
self-cleavage kobs at 40 uM GlcN6P [1]: < 1e-05 s⁻¹

A6U A52C
self-cleavage kobs at 40 uM GlcN6P [1]: < 1e-05 s⁻¹
self-cleavage kobs at 160 uM GlcN6P [2]: < 1e-05 s⁻¹
self-cleavage kobs at 640 uM GlcN6P [5]: < 1e-05 s⁻¹
self-cleavage kobs at 2500 uM GlcN6P [3]: < 1e-05 s⁻¹
self-cleavage kobs at 10000 uM GlcN6P [4]: < 1e-05 s⁻¹

U30A C58A G60C U69G
self-cleavage kobs at 40 uM GlcN6P [1]: < 1e-05 s⁻¹
self-cleavage kobs at 10000 uM GlcN6P [4]: < 1e-05 s⁻¹

A42C C68G
self-cleavage kobs at 40 uM GlcN6P [1]: < 1e-05 s⁻¹
self-cleavage kobs at 160 uM GlcN6P [2]: < 1e-05 s⁻¹
self-cleavage kobs at 640 uM GlcN6P [5]: < 1e-05 s⁻¹

A33C G40A C67G
self-cleavage kobs at 40 uM GlcN6P [1]: < 1e-05 s⁻¹

A6G U65C
self-cleavage kobs at 40 uM GlcN6P [1]: < 1e-05 s⁻¹
self-cleavage kobs at 160 uM GlcN6P [2]: < 1e-05 s⁻¹
self-cleavage kobs at 640 uM GlcN6P [5]: < 1e-05 s⁻¹
self-cleavage kobs at 2500 uM GlcN6P [3]: < 1e-05 s⁻¹
self-cleavage kobs at 10000 uM GlcN6P [4]: < 1e-05 s⁻¹

G7C C11U C61A C70G
self-cleavage kobs at 40 uM GlcN6P [1]: < 1e-05 s⁻¹
self-cleavage kobs at 2500 uM GlcN6P [3]: < 1e-05 s⁻¹

A36C U69G
self-cleavage kobs at 40 uM GlcN6P [1]: 4.49e-05 ± 1.6e-05 s⁻¹
self-cleavage kobs at 160 uM GlcN6P [2]: 0.000114 ± 3.7e-05 s⁻¹
self-cleavage kobs at 640 uM GlcN6P [5]: 0.000391 ± 9.8e-05 s⁻¹
self-cleavage kobs at 2500 uM GlcN6P [3]: 0.0001 ± 2e-05 s⁻¹
self-cleavage kobs at 10000 uM GlcN6P [4]: 3.45e-05 ± 1e-05 s⁻¹

A14C G60U
self-cleavage kobs at 40 uM GlcN6P [1]: < 1e-05 s⁻¹
self-cleavage kobs at 160 uM GlcN6P [2]: < 1e-05 s⁻¹
self-cleavage kobs at 640 uM GlcN6P [5]: < 1e-05 s⁻¹
self-cleavage kobs at 10000 uM GlcN6P [4]: < 1e-05 s⁻¹

G37C A48U U57G
self-cleavage kobs at 40 uM GlcN6P [1]: < 1e-05 s⁻¹
self-cleavage kobs at 640 uM GlcN6P [5]: < 1e-05 s⁻¹
self-cleavage kobs at 2500 uM GlcN6P [3]: < 1e-05 s⁻¹

C10U U45A C50U G66A
self-cleavage kobs at 40 uM GlcN6P [1]: < 1e-05 s⁻¹
self-cleavage kobs at 10000 uM GlcN6P [4]: < 1e-05 s⁻¹

C16U C34U
self-cleavage kobs at 40 uM GlcN6P [1]: < 1e-05 s⁻¹
self-cleavage kobs at 160 uM GlcN6P [2]: < 1e-05 s⁻¹
self-cleavage kobs at 10000 uM GlcN6P [4]: < 1e-05 s⁻¹

A14G A15G
self-cleavage kobs at 40 uM GlcN6P [1]: 0.00218 ± 0.00029 s⁻¹
self-cleavage kobs at 160 uM GlcN6P [2]: 0.0049 ± 0.0015 s⁻¹
self-cleavage kobs at 640 uM GlcN6P [5]: 0.0134 ± 0.0029 s⁻¹
self-cleavage kobs at 2500 uM GlcN6P [3]: 0.0102 ± 0.0027 s⁻¹
self-cleavage kobs at 10000 uM GlcN6P [4]: 0.109 ± 0.035 s⁻¹
